# Experimental data published in paper PMC8784115 (Proceedings of the National Academy of Sciences of the …, 2022).
# No end group written: not given here. Alexa594 = Alexa594 fluorescent dye
# Tests used:
# [1] = molecular target: T1, TAZ1 domain of CREB-binding protein (CBP), mouse CBP residues 340 to 439 (mouse, UniProt P45481 340-439); experiment: fluorescence polarisation
# [2] = molecular target: T1, TAZ1 domain of CREB-binding protein …; experiment: fluorescence polarisation; remark: listed apart in the source
# [3] = molecular target: T1, TAZ1 domain of CREB-binding protein …; experiment: fluorescence polarisation; remark: listed apart in the source
# [4] = molecular target: T1, TAZ1 domain of CREB-binding protein …; experiment: NMR titration
# [5] = molecular target: preformed complex of 15N-TAZ1 and HIF-1α (mouse | human, UniProt P45481 340-439; Q16665 776-826); experiment: NMR titration
# preformed complex of 15N-TAZ1 and HIF-1α, sequence (P45481 340-439, one chain of several): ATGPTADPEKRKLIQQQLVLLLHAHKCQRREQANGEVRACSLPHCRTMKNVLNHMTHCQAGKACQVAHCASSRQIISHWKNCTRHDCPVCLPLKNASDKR
# T1 sequence (P45481 340-439): as the sequence (P45481 340-439, one chain of several) above
binder,measurement,setting,value
"Alexa594-labeled HIF-1α peptide (C800V, labelled at C780) (peptide) GSHMSDLAC(Alexa594)RLLGQSMDESGLPQLTSYDVEVNAPIQGSRNLLQGEELLRALDQVN",binding result,[1],binds
Alexa594-labeled CITED 216-269 peptide (labelled at C261) (peptide) GSHMSNVIDTDFIDEEVLMSLVIEMGLDRIKELPELWLGQNEFDFMTDFVC(Alexa594)KQQPSRVS,binding result,[2],binds
Alexa594-labeled CITED APAA peptide (labelled at C261) (peptide) GSHMSNVIDTDFIDEEVLMSLVIEMGLDRIKEAPAAWLGQNEFDFMTDFVC(Alexa594)KQQPSRVS,binding result,[3],binds
CITED APAA peptide (CITED2 216-269 with the nonproline residues of the LPEL motif mutated to alanine) (peptide) GSHMSNVIDTDFIDEEVLMSLVIEMGLDRIKEAPAAWLGQNEFDFMTDFVCKQQPSRVS,binding result,[4],binds
same,binding result,[5],binds
